Assay results taken from US20260152577A1.

Target: human CD3 on T cells (human) (UniProt P07766)
Test: FACS on Jurkat cells

Substance: OKT3-hIgG1 (antibody)
- affinity: 0.27 nM
